T1: FLAG- and V5-tagged ATXN7L3 (UniProt Q14CW9 1-347)
T1 sequence (looked up): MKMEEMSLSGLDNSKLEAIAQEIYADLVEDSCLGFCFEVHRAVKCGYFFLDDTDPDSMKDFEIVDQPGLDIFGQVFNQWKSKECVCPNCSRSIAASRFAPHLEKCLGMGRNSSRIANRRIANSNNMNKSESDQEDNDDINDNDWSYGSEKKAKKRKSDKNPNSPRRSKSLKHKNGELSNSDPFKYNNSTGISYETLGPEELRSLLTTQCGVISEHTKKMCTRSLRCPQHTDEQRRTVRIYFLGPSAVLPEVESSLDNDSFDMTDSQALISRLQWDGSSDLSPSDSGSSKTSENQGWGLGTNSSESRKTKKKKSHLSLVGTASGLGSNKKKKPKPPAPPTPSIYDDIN

B1: USP51 (endogenous) (enzyme, human (endogenous in 293T), UniProt Q70EK9 1-711, looked up)
chain: MAQVRETSLPSGSGVRWISGGGGGASPEEAVEKAGKMEEAAAGATKASSRREAEEMKLEPLQEREPAPEENLTWSSSGGDEKVLPSIPLRCHSSSSPVCPRRKPRPRPQPRARSRSQPGLSAPPPPPARPPPPPPPPPPPAPRPRAWRGSRRRSRPGSRPQTRRSCSGDLDGSGDPGGLGDWLLEVEFGQGPTGCSHVESFKVGKNWQKNLRLIYQRFVWSGTPETRKRKAKSCICHVCSTHMNRLHSCLSCVFFGCFTEKHIHKHAETKQHHLAVDLYHGVIYCFMCKDYVYDKDIEQIAKETKEKILRLLTSTSTDVSHQQFMTSGFEDKQSTCETKEQEPKLVKPKKKRRKKSVYTVGLRGLINLGNTCFMNCIVQALTHIPLLKDFFLSDKHKCIMTSPSLCLVCEMSSLFHAMYSGSRTPHIPYKLLHLIWIHAEHLAGYRQQDAHEFLIAILDVLHRHSKDDSGGQEANNPNCCNCIIDQIFTGGLQSDVTCQACHSVSTTIDPCWDISLDLPGSCATFDSQNPERADSTVSRDDHIPGIPSLTDCLQWFTRPEHLGSSAKIKCNSCQSYQESTKQLTMKKLPIVACFHLKRFEHVGKQRRKINTFISFPLELDMTPFLASTKESRMKEGQPPTDCVPNENKYSLFAVINHHGTLESGHYTSFIRQQKDQWFSCDDAIITKATIEDLLYSEGYLLFYHKQGLEKD

Tests used:
[1] = target: FLAG- and V5-tagged ATXN7L3 (UniProt Q14CW9); assay: affinity purification with mass spectrometry
[2] = target: T1, FLAG- and V5-tagged ATXN7L3; assay: affinity purification with mass spectrometry

| Molecule | fold increase of association with ATXN7L3 upon depletion of USP22 [1] [fold] | fold increase of association with ATXN7L3 upon depletion of USP22 [2] [fold] |
| --- | --- | --- |
| USP27X (endogenous) (enzyme) | 5.5 |  |
| B1 |  | ~4 |

From PMC4874879 (Molecular cell, 2016)
